Experimental data taken from US9096835B2, “DNA polymerase” (Medical Research Council, priority 2003, dated 2015).

How the values were obtained:
[1] = test system: 215 bp fragment from the cytochrome B gene in the mitochondrial genome; assay: Ancient DNA PCR, cave hyena samples; assay type: biochemical, cave hyena (Crocuta spelaea); details: on two separate occasions
Description: FIG. 12. Several samples of cave hyena (Crocuta spelaea) were extracted and analysed. The seven samples were from Teufelslucke cave (Austria, 40 000 years old), Aufhausener Höhle (Germany, no date determined (2 samples)); Irpfelhöhle (Germany, no date determined); Kiskevelyi ([…] 48 500 years old); Miskolc III (Hungary, 44 000 years old); Mala ladnica (Slovakia, no date determined). The target was a 215 bp fragment from the cytochrome B gene in the mitochondrial genome. The amplification was only successful in the presence of sspDNA.
Several samples of cave hyena (Crocuta spelaea) were extracted and analysed. […] These samples were chosen to test the efficacy of the expanded substrate spectrum polymerases.
Therefore, M1 was blended with a commercial preparation of Taq (SuperTaq (HT biotechnology Ltd)) in a ratio of 1 unit to 10 and compared to Taq in the absence of M1. It was hoped that if M1 could bypass the blocking lesions, then the wild type Taq would amplify the resulting translesion synthesis product.

[2] = test system: template containing 5-Nitroindole; assay: Primer extension opposite 5-nitroindole; assay type: biochemical; details: for ability to replicate 5NI: clones from five rounds of selection
Method: 50 pmol of ^32P-labelled primer and 100 pmol of template in a volume of 44 μl were annealed in 1× Taq buffer. 4D11 or 5D4 polymerase as cell lysate (6 μl) was added and reactions were incubated at 50° C. for 15 minutes followed by addition of one dNTP (1 μl in total volume of 50 μl, final dNTP concentration 40 μM). 8 μl samples were taken at various time points and added to 8 μl stop solution (7M urea, 100 mM EDTA containing xylene cyanol F). At the end of the time course the remaining 3 dNTPs were added (final concentration each dNTP 40 μM) and reactions incubated at 50° C. for a further 30 minutes. Reaction samples were electrophoretically separated using 20% polyacrylamide gels at 25 W for 4 hours. The resultant gels were dried and scanned using a phosphorimager (Molecular Dynamics). Data was processed using the program ImageQuant (Molecular Dynamics).

[3] = Incorporation and extension of 5-nitroindole-5′-triphosphate; assay type: biochemical; details: 50° C., identical conditions as 4D11 and 5D4; data not shown
Method: 50 pmol of ^32P-labelled primer and 100 pmol of template in a volume of 44 μl were annealed in 1× Taq buffer. 4D11 or 5D4 polymerase as cell lysate (6 μl) was added and reactions were incubated at 50° C. for 15 minutes followed by addition of d5NITP (1 μl in total volume of 50 µL final dNTP concentration 40 μM). 8 μl samples were taken at various time points and added to 8 μl stop solution (7M urea, 100 mM EDTA containing xylene cyanol F). At the end of the time course the 4 native dNTPs were added (final concentration each dNTP 40 μM) and reactions incubated at 50° C. for a further 30 minutes.

For “SuperTaq: commercial preparation of Taq (HT biotechnology Ltd)”, the “amplification of previously un-amplifiable cave hyena DNA” value [1] was “did not”.

B1: Tth: Thermus thermophilus (Tth) wild-type polymerase (protein, UniProt P52028 1-834, looked up)
DNA polymerase I, thermostable: MEAMLPLFEPKGRVLLVDGHHLAYRTFFALKGLTTSRGEPVQAVYGFAKSLLKALKEDGYKAVFVVFDAKAPSFRHEAYEAYKAGRAPTPEDFPRQLALIKELVDLLGFTRLEVPGYEADDVLATLAKKAEKEGYEVRILTADRDLYQLVSDRVAVLHPEGHLITPEWLWEKYGLRPEQWVDFRALVGDPSDNLPGVKGIGEKTALKLLKEWGSLENLLKNLDRVKPENVREKIKAHLEDLRLSLELSRVRTDLPLEVDLAQGREPDREGLRAFLERLEFGSLLHEFGLLEAPAPLEEAPWPPPEGAFVGFVLSRPEPMWAELKALAACRDGRVHRAADPLAGLKDLKEVRGLLAKDLAVLASREGLDLVPGDDPMLLAYLLDPSNTTPEGVARRYGGEWTEDAAHRALLSERLHRNLLKRLEGEEKLLWLYHEVEKPLSRVLAHMEATGVRLDVAYLQALSLELAEEIRRLEEEVFRLAGHPFNLNSRDQLERVLFDELRLPALGKTQKTGKRSTSAAVLEALREAHPIVEKILQHRELTKLKNTYVDPLPSLVHPRTGRLHTRFNQTATATGRLSSSDPNLQNIPVRTPLGQRIRRAFVAEAGWALVALDYSQIELRVLAHLSGDENLIRVFQEGKDIHTQTASWMFGVPPEAVDPLMRRAAKTVNFGVLYGMSAHRLSQELAIPYEEAVAFIERYFQSFPKVRAWIEKTLEEGRKRGYVETLFGRRRYVPDLNARVKSVREAAERMAFNMPVQGTAADLMKLAMVKLFPRLREMGARMLLQVHDELLLEAPQARAEEVAALAKEAMEKAYPLAVPLEVEVGMGEDWLSAKG
For B1, the “extension opposite 5-nitroindole” value ([2]; 50° C., cell lysate, identical conditions as 4D11 and 5D4, data not shown) was “almost undetectable extension reactions” and the “incorporation and extension of d5NITP” value [3] was “almost undetectable extension reactions”.

B2: 5D4: round 5 clone selected for replication of 5NI; SEQ ID NO: 109 (protein)
chain: MAMLPLFEPKGRVLLVDGHHLAYRTFFALKGLTTSRGEPVQAVYGFAKSLLKALKEDGYKAIFVVFDAKAPSFRHEAHEAYKAGRAPSPEDFPRQLALIKELVDLLGFTRLEVQGYEADDVLATLAKKAEKEGYEVRILTADRDLYQLVSDRVAVLHPEGHLITPEWLWEKYGLRPEQWVDFRALVGDPSDNLPGVKGIGEKTALKLLKEWGSLENLLKNLDRLKPAIREKILAHMDDLKLSWDLAKVRTDLPLEVDFAKRRESDRERLRAFLERLEFGSLLHEFGLLESPKALEEAPWPPPVGAFVGFVLSRKEPMWADLLALAAARGGRVHRAPEPYKALRDLKEARGLLAKDLSVLALREGLGLPPGDDPMLLAYLLDPSNTTPEVVARRYGGEWTEEAGERAALSERLFANLWGRLEGEGRLLWLYRGVERPLSAVLAHMEATGVRLDVAYLRALSLEVAEEIARLEAEVFRLAGHPFNLNSRDQLERVLFDELGLPAIGKTEKTGKRSTSAAVLEALREAHPIVEKILQYRELTKLKSTYIDPLPDLIHPRTGRLHTRFNQTATATGRLSSSDPNLQNIPVRTPLGQRIRRAFIAEGGWLLVVLDYSQMELRVLAHLSGDENLIRVFQEGRDIHTETASWMFGVPREAVDPLMRRAAKTINFGVLYGMSAHRLSQELAIPYEEAQAFIERYFQSFPKVRAWIEKTLEEGRKRGYVETLFGRRRYVPDLNARVKSVREAAERMAFNMPVQGTAADLTKLAMVKLFPRLEETGARMLLQVHDELVLEAPKERAEAVARLAKEVMEGVYPLAVPLEVEVGIGEDWLSAKG
modifications: Mutant Taq polymerase
For B2, the “ability to replicate 5NI” value [2] was “greatly increased ability to replicate 5NI”.

B3: 4D11: round 4 clone selected for replication of 5NI; SEQ ID NO: 107 (protein)
chain: MAMLPLFEPKGRVLLVDGHHLAYRTFFALKGLTTSRGEPVQAVYGFAKSLLKALKEDGYKAVFVVFDAKAPSFRHEAYEAYKAGRAPTPEDFPRQLALIKELVDLLGFTRLEVQGYEADDVLATLAKKAEKEGYEVRILTADRDLYQLVSDRVAVLHPEGHLITPEWLWEKYGLRPEQWVDFRALVGDPSDNLPGIKGIGEKTALKLLKEWGSLENLLKNLDRVKPENVREKIKAHLEDLRLSLELSRVRTDLPLEVDFAKRREPDRERLRAFLERLEFGSLLHEFGLLESPKALEEAPWPPPEGAFVGFVLSRKEPMWADLLALAAAKGGRVHRAPEPYKALRDLKEARGLLAKDLSVLALREGLGLPPGDDPMLLAYLLDPSNTTPEGVARRYGGEWTEEAGERAALSERLFANLWGRLEGEERLLWLYREVERPLSAVLAHMEATGVRLDVAYLRALSLEVAEEIARLEAEVFRLAGHPFNLNSRDQLERVLFDELGLPAIGKTEKTGKRSTSAAVLEALREAHPIVEKILQYRELTKLKSTYIDPLPDLIHPRTGRLHTRFNQTATATGRLSSSDPNLQNIPVRTPLGQRIRRAFIAEGGWLLVVLDYSQMELRVLAHLSGDENLIRVFQEGRDIHTETASWMFGVPREAVDPLMRRAAKTINFGVLYGMSAHRLSQELAIPYEEAQAFIERYFQSFPKVRAWIEKTLEEGRRRGYVETLFGRRRYVPDLEARVKSVREAAERMAFNMPVQGTAADLMKLAMVKLFPRLEETGARMLLQVHDELVLEAPKERAEAVARLAKEVMEGVYPLAVPLEVEVGIGEDWLSAKE
modifications: Mutant Taq polymerase
With B3 the “ability to replicate 5NI” value [2] was “greatly increased ability to replicate 5NI”.
